Reference: patent US20170320960A1 (AbbVie / Abbott, published 2017)

T1: hMFI2 Tf-like Domain 2 (TLD2), amino acids 366-709, displayed on yeast (human, UniProt P08582 366-709)
T1 construct: also called TFLD2; transferrin-like domain 2
T1 sequence: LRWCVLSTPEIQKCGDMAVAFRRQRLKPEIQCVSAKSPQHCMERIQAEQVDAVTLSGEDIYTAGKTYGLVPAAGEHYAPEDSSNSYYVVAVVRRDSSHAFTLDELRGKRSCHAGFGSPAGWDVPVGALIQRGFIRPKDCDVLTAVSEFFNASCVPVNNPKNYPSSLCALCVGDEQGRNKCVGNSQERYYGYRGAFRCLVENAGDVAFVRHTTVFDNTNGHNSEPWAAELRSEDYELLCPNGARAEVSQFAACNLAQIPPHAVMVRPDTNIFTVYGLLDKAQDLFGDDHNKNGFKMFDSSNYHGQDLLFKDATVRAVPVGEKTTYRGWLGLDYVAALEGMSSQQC

T2: hMFI2 Tf-like Domain 1 (TLD1), amino acids 20-357, displayed on yeast (human, UniProt P08582 20-357)
T2 construct: also called TFLD1
T2 sequence: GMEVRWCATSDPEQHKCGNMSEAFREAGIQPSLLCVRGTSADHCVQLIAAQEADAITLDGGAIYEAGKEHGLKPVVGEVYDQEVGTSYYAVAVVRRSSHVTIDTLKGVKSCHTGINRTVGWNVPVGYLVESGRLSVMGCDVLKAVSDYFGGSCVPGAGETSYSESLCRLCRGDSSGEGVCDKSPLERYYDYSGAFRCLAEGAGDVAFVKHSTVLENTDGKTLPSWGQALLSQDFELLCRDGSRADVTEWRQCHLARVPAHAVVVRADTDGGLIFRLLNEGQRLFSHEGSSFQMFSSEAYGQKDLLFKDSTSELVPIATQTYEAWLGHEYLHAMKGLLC

B1: hSC57.43 (antibody, human IgG1, kappa, V domains shown)
VH: QVQLVESGGGVVQPGRSLRLSCAASGFTFGSYTMSWVRQAPGKGLEWVAYISNGGYVTYYPDTVKGRFTISRDNSKNTLYLQMNSLRAEDTAVYYCARGYDWYFDVWGQGTTVTVSS
VL: DIVMTQSPDSLAVSLGERATINCRSSQSLVHSNGNTYLHWYQQKPGQPPKLLIYKVSNRFSGVPDRFSGSGSGTDFTLTISSLQAEDVAVYYCSQSTHVPLYTFGGGTKVEIKR
B2: SC57.37 (antibody, V domains shown)
VH: EIQLQQSGPEMVKPGASVKVTCKASGYSFTDFNMHWMKQSHGKSLEWIGYIDPYKGGISYNQKFKGRATLTVDKSSSTAFMHLNSLTSDDSAVYYCARDYYGSRFPYYFDYWGQGTTLTVSS
VL: DVVMTQTPLSLPVSLGDQASISCRSSQSLVHSNGNTYLHWYLQKPGQSPKLLIYRVSNRFSGVPDRFSGSGSGTDFTLKISRVEAEDLGVYLCSQSTHVPLTFGAGTKLELK
B3: SC57.32 (antibody, V domains shown)
VH: QVQLQQSGAELMKPGASVKISCKATGYTFSNYRIEWIKQRPGHGLEWIGEILPRGGNTNYNEKFKGKATFTADTSSNTAYMQLTSLTSEDSAVYYCARDDGYYGRFAYWGQGTLVTVSA
VL: DIQMTQTTSSLSASLGDRVTISCRASQDISNYLNWYQQKPDGTVKLLIFYTSRLHSGVPSRFSGSGSGTDYSLTISNLEQEDFATYFCQQGNTLPPTFGGGTKLEIK
B4: hSC57.32 (antibody, human IgG1, kappa, V domains shown)
VH: QVQLVQSGAEVKKPGASVKVSCKASGYTFTNYRIEWVRQAPGQGLEWMGEILPRGGNTNYNEKFKGRVTFTADTSTSTAYMELRSLRSDDTAVYYCARDDGYYGRFAYWGQGTLVTVSS
VL: DIQMTQSPSSLSASVGDRVTITCRASQDISNYLNWYQQKPGKAPKLLIYYTSRLHSGVPSRFSGSGSGTDYTLTISSLQPEDFATYYCQQGNTLPPTFGGGTKVEIKR
B5: SC57.31 (antibody, V domains shown)
VH: QVHLKESGPGLVAPSQSLSITCTVSGFSLTTYGVHWVRQPPGKGLEWLGVIWAGGSTKYNSAFMSRLSISKDNSKTQVLLKMNSLQTDDTAMYYCARVASHGSSSWFAYWGQGTLVTVSA
VL: DIVLTQSPATLSVTPGDSVSLSCRASQSVGNSLHWYQQKSHESPRLLIKYASQSISGIPSRFSGSGSGTDFTLSINSVETEDFGMYFCQQSDSWPLTFGTGTKLELK
B6: SC57.52 (antibody, V domains shown)
VH: QVQLKQSGPGLVQPSQSLSITCTVSGFSLSSYGVHWVRQSPGKGLEWLGVIWSGGNTDYNAAFISRLSISKDNSKSQVFFKMNSLQADDTAIYYCARRNNSAWFAYWGQGTLVTVSA
VL: DIVLTQSPATLSVTPGDSVSLSCRASQGISNNLHWYQQKSHESPRLLIKYASQSISGIPSRFSGSGSGTDFALSINSVETEDFGMFFCQQSNSWPLTFGAGTKLELK
B7: SC57.55 (antibody, V domains shown)
VH: QVQLKQSGPGLVQPSQSLSITCTVSGFSLSSYGVHWVRQSPGKGLEWLGVIWSGGNTDYNAAFISRLSISKDNSKSQVFFKMNSLQADDTAIYYCARRNNSAWFAYWGQGTLVTVSA
VL: DIVLTQSPATLSVTPGDSVSLSCRASQGISNNLHWYQQKSHESPRLLIKYASQSISGIPSRFSGSGSGTDFALSINSVETEDFGMFFCQQSNSWPLTFGAGTKLELK
B8: hSC57.5 (antibody, human IgG1, kappa, V domains shown)
VH: EVQLVQSGAEVKKPGESLKISCKGSGYSFTDYYLHWVRQMPGKGLEWMGRINPYNGATSYNQIFKDQVTISADKSISTAYLQWSSLKASDTAMYYCARGGDYDFPWYWGQGTTVTVSS
VL: DIQMTQSPSSLSASVGDRVTITCKASQDVYAAVAWYQQKPGKAPKLLIYWASTRHAGVPSRFSGSGSGTDFTLTISSLQPEDFATYYCQQHYRTPWTFGQGTKVEIKR
notes: also called humanized SC57.5
B9: SC57.1 (antibody, V domains shown)
VH: QVQLKQSGPGLVQPSQSLSITCTVSGFSLTDYGVHWVRQSPGKGLDWLGVIWSGGNTDYNAAFISRLSISKDNSKSQIFFEMNSLQDTDTAIYYCARQLHYYGPFAYWGQGTLVTVSA
VL: QIVLTQSPAIMSASPGEKVTMTCSASSSVSYMHWYQQKSGTSPKRWIYDTSKLASGVPVRFSGSGSGTSYSLTISSIEADDAATYYCQQWSRTPPTFGGGTKLEIK
B10: SC57.5 (antibody, V domains shown)
VH: EVQLQQSGPELVKPGASVKISCKASGYSFTDYYLHWVKQSHVKSLEWIGRINPYNGATSYNQIFKDKASLTVDKSSSTAYMDLHSLTSEDSAVYYCARGGDYDFPWYWGQGTTLTVSP
VL: DIVMTQSHKFMSTSVGDRVSITCKASQDVYAAVAWYHQKPGQSPKLLIYWASTRHAGVPDRFTGSGSGTDYTLTISSVQAEDLALYYCQQHYRTPWTFGGGTKLEIK
B11: SC57.9 (antibody, V domains shown)
VH: QVQLQQSGPELMKPGASVKISCKATGYTFSSYWIEWVKQRPGHGLEWIGEILPGSGSTEYNEKFKGKATFTADTSSNTAYMQLSSLTSEDSDVYYCARKRYGTMDYWGQGTSVTVSS
VL: QIVLTQSPAIMSASPGEKVTITCSASSSVSYMHWFQQKPGTSPKLWIYTTSNLASGVPARFSGSGSGTSYSLTISRMEAEDAATYYCQQRSSFPPTFGSGTKLEIK
B12: SC57.4 (antibody, V domains shown)
VH: EIQLQQSGPEMVKPGASVKVTCKASGYSFTDFNMHWMKQSHGKSLEWIGYIDPYKGGISYNQKFKGRATLTVDKSSSTAFMHLNSLTSDDSAVYYCARDYYGSRFPYYFDYWGQGTTLTVSS
VL: DVVMTQTPLSLPVSLGDQASISCRSSQSLVHSNGNTYLHWYLQKPGQSPKLLIYRVSNRFSGVPDRFSGSGSGTDFTLKISRVEAEDLGVYLCSQSTHVPLTFGAGTKLELK
B13: SC57.25 (antibody, V domains shown)
VH: EIQLQQSGPEMVKPGASVKVTCKASGYSFTDFNMHWMKQSHGKSLEWIGYIDPYKGGISYNQKFKGRATLTVDKSSSTAFMHLNSLTSDDSAVYYCARDYYGSRFPYYFDYWGQGTTLTVSS
VL: DVVMTQTPLSLPVSLGDQASISCRSSQSLVHSNGNTYLHWYLQKPGQSPKLLIYRVSNRFSGVPDRFSGSGSGTDFTLKISRVEAEDLGVYLCSQSTHVPLTFGAGTKLELK
B14: SC57.28 (antibody, V domains shown)
VH: EIQLQQSGPEMVKPGASVKVTCKASGYSFTDFNMHWMKQSHGKSLEWIGYIDPYKGGISYNQKFKGRATLTVDKSSSTAFMHLNSLTSDDSAVYYCARDYYGSRFPYYFDYWGQGTTLTVSS
VL: DVVMTQTPLSLPVSLGDQASISCRSSQSLVHSNGNTYLHWYLQKPGQSPKLLIYRVSNRFSGVPDRFSGSGSGTDFTLKISRVEAEDLGVYLCSQSTHVPLTFGAGTKLELK
B15: SC57.18 (antibody, V domains shown)
VH: EIQLQQSGPEMVKPGASVKVTCKASGYSFTDFNMHWMKQSHGKSLEWIGYIDPYKGGISYNQKFKGRATLTVDKSSSTAFMHLNSLTSDDSAVYYCARDYYGSRFPYYFDYWGQGTTLTVSS
VL: DVVMTQTPLSLPVSLGDQASISCRSSQSLVHSNGNTYLHWYLQKPGQSPKLLIYRVSNRFSGVPDRFSGSGSGTDFTLKISRVEAEDLGVYLCSQSTHVPLTFGAGTKLELK
B16: SC57.10 (antibody, V domains shown)
VH: QVQLQQSGAELMKPGASVKISCKATGYTFSNYRIEWIKQRPGHGLEWIGEILPRGGNTNYNEKFKGKATFTADTSSNTAYMQLTSLTSEDSAVYYCARDDGYYGRFAYWGQGTLVTVSA
VL: DIQMTQTTSSLSASLGDRVTISCRASQDISNYLNWYQQKPDGTVKLLIFYTSRLHSGVPSRFSGSGSGTDYSLTISNLEQEDFATYFCQQGNTLPPTFGGGTKLEIK
B17: SC57.11 (antibody, V domains shown)
VH: QVQLQQSGAELMKPGASVKISCKATGYTFSNYRIEWMKQRPGHGLEWIGEILPRTGNTNYNENFKGKATFTADTSSNTAYIQLSSLTSEDSAVYYCARDDGYYGRFAYWGQGTLVTVSA
VL: DIQMTQTTSSLSASLGDRVTISCRASQDISSYLNWYQQKPDGTVKLLIYYTSRLHSGVPSRFSGSGSGTDYSLTINNLEQEDIATYFCQQGNTLPPTFGGGTKLEIK
B18: SC57.17 (antibody, V domains shown)
VH: EVQLQQSGAELVKPGASVKLSCTASGFNIKDTYMHWVKQRPEQGLEWIGRIDPANVNTSDDPKFQGKATIAADTSSNTVYLQLSSLTSEDTAVYYCARDYRYDGYYYAMDYWGQGTSVTVSS
VL: DIQMTQTTSSLSASLGDRVTISCSASQDINNYLNWYQQKPDGTVKLLIHYTSSLHSGVPSRFSGSGSGTDYSLTISNLEPEDIATYYCQQYSKVPWTFGGGTKLEIK

target: T1, hMFI2 Tf-like Domain 2 (TLD2), amino …; assay: flow cytometry on yeast displaying hMFI2 domains

Binding result, binds:
B1
B2
B3
B4
B5
B6
B7
B8

target: T2, hMFI2 Tf-like Domain 1 (TLD1), amino …; assay: flow cytometry on yeast displaying hMFI2 domains

Binding result, binds:
B9

target: T1, hMFI2 Tf-like Domain 2 (TLD2), amino …; assay: flow cytometry on yeast displaying hMFI2 domains; remark: another data set of the same source

Binding result, binds:
B10
B11
B12
B13
B14
B15
B16
B17
B18
